Numbered stars: 1 amine (or outer) side, 2 acyl side, 3 side chain; on linkers, the order of the positions; unused ones are H or OH. Bridge positions count the residues as written; N and C are the ends. Square brackets hold non-standard residues; d marks the D form. Primed or numbered codes have the meaning given here. * marks the point of attachment. Ttds″ = 1,13-diamino-4,7,10-trioxatridecan-succinamic acid spacer, O=C(CCC(=O)[*:2])NCCCOCCOCCOCCCN[*:1]; Ttds(4) = spacer between chelator and peptide, O=C(CCC(=O)[*:2])NCCCOCCOCCOCCCN[*:1]; DOTA = O=C(O)CN1CCN(CC(=O)O)CCN(CC(=O)*)CCN(CC(=O)O)CC1; mXylylene = c1cc(C[*:1])cc(C[*:2])c1; NMeF = CN[C@@H](Cc1ccccc1)C(=O)O; 4Pal = N[C@@H](Cc1ccncc1)C(=O)O; 4Amb = NCc1ccc(C(=O)O)cc1; Nle = CCCC[C@H](N)C(=O)O; Hexanoyl = CCCCCC(=O)*; NH(CH2)5NH2 = NCCCCCN*; Omp = not defined here
Key:
[1] = molecular target: T1, Recombinant human FAP (R&D systems, #3715-SE) (human, UniProt Q12884 26-760); test: SPR (Biacore T200), FAP captured on anti-FAP antibody, single cycle kinetics
T1 construct: bought; in SPR captured on immobilized anti-FAP antibody MAB3715; also called rhFAP; human recombinant FAP

[2] = molecular target: T2, fibroblast activation protein (FAP) on FAP-expressing human WI-38 fibroblasts (human, UniProt Q12884 1-760); test: competitive FACS, WI-38 cells, vs Cy5 tracer m3; A = pIC50 >8.0
T2 construct: also called human FAP

[3] = molecular target: Recombinant human FAP (R&D systems, #3715-SE) (human, UniProt Q12884 26-760); test: cell-based or functional assay

pKD Category [1]	pIC50 Category (FACS) [2]	pIC50 Category (Activity) [3]	Binder
> 8 pKD	–	–	Hexanoyl-CPPTQFCD-{NH(CH2)5NH2-DOTA′} (linker 1-7 via mXylylene, also called 3BP-3403) [Hex-[Cys(3MeBn)-Pro-Pro-Thr-Gln-Phe-Cys]-Asp-Ape-NH-DOTA′]
> 8 pKD	–	–	Hexanoyl-CPPTEFCD-NH2 (linker 1-7 via mXylylene; SMILES CCCCCC(=O)N[C@H]1CSCc2cccc(c2)CSC[C@@H](C(=O)N[C@@H](CC(=O)O)C(N)=O)NC(=O)[C@H](Cc2ccccc2)NC(=O)[C@H](CCC(=O)O)NC(=O)[C@H]([C@@H](C)O)NC(=O)[C@@H]2CCCN2C(=O)[C@@H]2CCCN2C1=O, also called 3BP-3288) [Hex-[Cys(3MeBn)-Pro-Pro-Thr-Glu-Phe-Cys]-Asp-NH2]
> 8 pKD	–	–	Ac-MCPPTEFCDHFRD-NH2 (linker 2-8 via mXylylene; SMILES CSCC[C@H](NC(C)=O)C(=O)N[C@H]1CSCc2cccc(c2)CSC[C@@H](C(=O)N[C@@H](CC(=O)O)C(=O)N[C@@H](Cc2c[nH]cn2)C(=O)N[C@@H](Cc2ccccc2)C(=O)N[C@@H](CCCNC(=N)N)C(=O)N[C@@H](CC(=O)O)C(N)=O)NC(=O)[C@H](Cc2ccccc2)NC(=O)[C@H](CCC(=O)O)NC(=O)[C@H]([C@@H](C)O)NC(=O)[C@@H]2CCCN2C(=O)[C@@H]2CCCN2C1=O, also called 3BP-2975) [Ac-Met-[Cys(3MeBn)-Pro-Pro-Thr-Glu-Phe-Cys]-Asp-His-Phe-Arg-Asp-NH2]
> 8 pKD	–	–	Hexanoyl-CPPTEFC-NH2 (linker 1-7 via tMeBn(DOTA-AET), also called 3BP-3653) [Hex-[Cys(tMeBn(DOTA-AET))-Pro-Pro-Thr-Glu-Phe-Cys]-NH2]
–	> 8 pIC50	> 8 pIC50	Hexanoyl-CPPTEFCDR-NH2 (linker 1-7 via mXylylene; SMILES CCCCCC(=O)N[C@H]1CSCc2cccc(c2)CSC[C@@H](C(=O)N[C@@H](CC(=O)O)C(=O)N[C@@H](CCCNC(=N)N)C(N)=O)NC(=O)[C@H](Cc2ccccc2)NC(=O)[C@H](CCC(=O)O)NC(=O)[C@H]([C@@H](C)O)NC(=O)[C@@H]2CCCN2C(=O)[C@@H]2CCCN2C1=O, also called 3BP-3299) [Hex-[Cys(3MeBn)-Pro-Pro-Thr-Glu-Phe-Cys]-Asp-Arg-NH2]
–	> 8 pIC50	> 8 pIC50	Ac-MCPPTEFCDHFR[dD]-NH2 (linker 2-8 via mXylylene; SMILES CSCC[C@H](NC(C)=O)C(=O)N[C@H]1CSCc2cccc(c2)CSC[C@@H](C(=O)N[C@@H](CC(=O)O)C(=O)N[C@@H](Cc2c[nH]cn2)C(=O)N[C@@H](Cc2ccccc2)C(=O)N[C@@H](CCCNC(=N)N)C(=O)N[C@H](CC(=O)O)C(N)=O)NC(=O)[C@H](Cc2ccccc2)NC(=O)[C@H](CCC(=O)O)NC(=O)[C@H]([C@@H](C)O)NC(=O)[C@@H]2CCCN2C(=O)[C@@H]2CCCN2C1=O, also called 3BP-3213) [Ac-Met-[Cys(3MeBn)-Pro-Pro-Thr-Glu-Phe-Cys]-Asp-His-Phe-Arg-asp-NH2]
–	> 8 pIC50	> 8 pIC50	Hexanoyl-CPPTEFCD[4Amb]R-NH2 (linker 1-7 via mXylylene; SMILES CCCCCC(=O)N[C@H]1CSCc2cccc(c2)CSC[C@@H](C(=O)N[C@@H](CC(=O)O)C(=O)NCc2ccc(C(=O)N[C@@H](CCCNC(=N)N)C(N)=O)cc2)NC(=O)[C@H](Cc2ccccc2)NC(=O)[C@H](CCC(=O)O)NC(=O)[C@H]([C@@H](C)O)NC(=O)[C@@H]2CCCN2C(=O)[C@@H]2CCCN2C1=O, also called 3BP-3301) [Hex-[Cys(3MeBn)-Pro-Pro-Thr-Glu-Phe-Cys]-Asp-Pamb-Arg-NH2]
–	> 8 pIC50	> 8 pIC50	Hexanoyl-CPPTEFCDH[NMeF]R[Ttds″]K(DOTA)-NH2 (linker 1-7 via mXylylene; SMILES CCCCCC(=O)N[C@H]1CSCc2cccc(c2)CSC[C@@H](C(=O)N[C@@H](CC(=O)O)C(=O)N[C@@H](Cc2c[nH]cn2)C(=O)N(C)[C@@H](Cc2ccccc2)C(=O)N[C@@H](CCCNC(=N)N)C(=O)NCCCOCCOCCOCCCNC(=O)CCC(=O)N[C@@H](CCCCNC(=O)CN2CCN(CC(=O)O)CCN(CC(=O)O)CCN(CC(=O)O)CC2)C(N)=O)NC(=O)[C@H](Cc2ccccc2)NC(=O)[C@H](CCC(=O)O)NC(=O)[C@H]([C@@H](C)O)NC(=O)[C@@H]2CCCN2C(=O)[C@@H]2CCCN2C1=O, also called 3BP-3275) [Hex-[Cys(3MeBn)-Pro-Pro-Thr-Glu-Phe-Cys]-Asp-His-Nmf-Arg-Ttds-Lys(DOTA)-NH2]
–	> 8 pIC50	> 8 pIC50	Hexanoyl-CPPTEFCDH[4Pal][dR][Ttds″]K(DOTA)-NH2 (linker 1-7 via mXylylene; SMILES CCCCCC(=O)N[C@H]1CSCc2cccc(c2)CSC[C@@H](C(=O)N[C@@H](CC(=O)O)C(=O)N[C@@H](Cc2c[nH]cn2)C(=O)N[C@@H](Cc2ccncc2)C(=O)N[C@H](CCCNC(=N)N)C(=O)NCCCOCCOCCOCCCNC(=O)CCC(=O)N[C@@H](CCCCNC(=O)CN2CCN(CC(=O)O)CCN(CC(=O)O)CCN(CC(=O)O)CC2)C(N)=O)NC(=O)[C@H](Cc2ccccc2)NC(=O)[C@H](CCC(=O)O)NC(=O)[C@H]([C@@H](C)O)NC(=O)[C@@H]2CCCN2C(=O)[C@@H]2CCCN2C1=O, also called 3BP-3277) [Hex-[Cys(3MeBn)-Pro-Pro-Thr-Glu-Phe-Cys]-Asp-His-Ppa-arg-Ttds-Lys(DOTA)-NH2]
–	> 8 pIC50	> 8 pIC50	Hexanoyl-CPPTEFCDH[dF]R[Ttds″]K(DOTA)-NH2 (linker 1-7 via mXylylene; SMILES CCCCCC(=O)N[C@H]1CSCc2cccc(c2)CSC[C@@H](C(=O)N[C@@H](CC(=O)O)C(=O)N[C@@H](Cc2c[nH]cn2)C(=O)N[C@H](Cc2ccccc2)C(=O)N[C@@H](CCCNC(=N)N)C(=O)NCCCOCCOCCOCCCNC(=O)CCC(=O)N[C@@H](CCCCNC(=O)CN2CCN(CC(=O)O)CCN(CC(=O)O)CCN(CC(=O)O)CC2)C(N)=O)NC(=O)[C@H](Cc2ccccc2)NC(=O)[C@H](CCC(=O)O)NC(=O)[C@H]([C@@H](C)O)NC(=O)[C@@H]2CCCN2C(=O)[C@@H]2CCCN2C1=O, also called 3BP-3276) [Hex-[Cys(3MeBn)-Pro-Pro-Thr-Glu-Phe-Cys]-Asp-His-phe-Arg-Ttds-Lys(DOTA)-NH2]
–	> 8 pIC50	> 8 pIC50	Ac-MCPPTEFCD[dH]FRD-NH2 (linker 2-8 via mXylylene; SMILES CSCC[C@H](NC(C)=O)C(=O)N[C@H]1CSCc2cccc(c2)CSC[C@@H](C(=O)N[C@@H](CC(=O)O)C(=O)N[C@H](Cc2c[nH]cn2)C(=O)N[C@@H](Cc2ccccc2)C(=O)N[C@@H](CCCNC(=N)N)C(=O)N[C@@H](CC(=O)O)C(N)=O)NC(=O)[C@H](Cc2ccccc2)NC(=O)[C@H](CCC(=O)O)NC(=O)[C@H]([C@@H](C)O)NC(=O)[C@@H]2CCCN2C(=O)[C@@H]2CCCN2C1=O, also called 3BP-3210) [Ac-Met-[Cys(3MeBn)-Pro-Pro-Thr-Glu-Phe-Cys]-Asp-his-Phe-Arg-Asp-NH2]
–	> 8 pIC50	> 8 pIC50	Ac-MCPPTEFCDH[dF]RD-NH2 (linker 2-8 via mXylylene; SMILES CSCC[C@H](NC(C)=O)C(=O)N[C@H]1CSCc2cccc(c2)CSC[C@@H](C(=O)N[C@@H](CC(=O)O)C(=O)N[C@@H](Cc2c[nH]cn2)C(=O)N[C@H](Cc2ccccc2)C(=O)N[C@@H](CCCNC(=N)N)C(=O)N[C@@H](CC(=O)O)C(N)=O)NC(=O)[C@H](Cc2ccccc2)NC(=O)[C@H](CCC(=O)O)NC(=O)[C@H]([C@@H](C)O)NC(=O)[C@@H]2CCCN2C(=O)[C@@H]2CCCN2C1=O, also called 3BP-3211) [Ac-Met-[Cys(3MeBn)-Pro-Pro-Thr-Glu-Phe-Cys]-Asp-His-phe-Arg-Asp-NH2]
–	> 8 pIC50	> 8 pIC50	Hexanoyl-CPPTEFCD[Omp]R-NH2 (linker 1-7 via mXylylene; reading uncertain; also: printed as Hex-[Cys(3MeBn)-Pro-Pro-Thr-Glu-Phe-Cys]-Asp-Omp-Arg-NH2, also called 3BP-3302) [Hex-[Cys(3MeBn)-Pro-Pro-Thr-Glu-Phe-Cys]-Asp-Omp-Arg-NH2]
> 8 pKD	–	–	{DOTA}-[Ttds(4)][Nle]CPPTQFCD-NH2 (linker 3-9 via mXylylene; SMILES CCCC[C@H](NC(=O)CCC(=O)NCCCOCCOCCOCCCNC(=O)CN1CCN(CC(=O)O)CCN(CC(=O)O)CCN(CC(=O)O)CC1)C(=O)N[C@H]1CSCc2cccc(c2)CSC[C@@H](C(=O)N[C@@H](CC(=O)O)C(N)=O)NC(=O)[C@H](Cc2ccccc2)NC(=O)[C@H](CCC(N)=O)NC(=O)[C@H]([C@@H](C)O)NC(=O)[C@@H]2CCCN2C(=O)[C@@H]2CCCN2C1=O, also called 3BP-3401) [DOTA-Ttds-Nle-[Cys(3MeBn)-Pro-Pro-Thr-Gln-Phe-Cys]-Asp-NH2]
–	> 8 pIC50	> 8 pIC50	Ac-MCPPTEFCDHF[dR]D-NH2 (linker 2-8 via mXylylene; SMILES CSCC[C@H](NC(C)=O)C(=O)N[C@H]1CSCc2cccc(c2)CSC[C@@H](C(=O)N[C@@H](CC(=O)O)C(=O)N[C@@H](Cc2c[nH]cn2)C(=O)N[C@@H](Cc2ccccc2)C(=O)N[C@H](CCCNC(=N)N)C(=O)N[C@@H](CC(=O)O)C(N)=O)NC(=O)[C@H](Cc2ccccc2)NC(=O)[C@H](CCC(=O)O)NC(=O)[C@H]([C@@H](C)O)NC(=O)[C@@H]2CCCN2C(=O)[C@@H]2CCCN2C1=O, also called 3BP-3212) [Ac-Met-[Cys(3MeBn)-Pro-Pro-Thr-Glu-Phe-Cys]-Asp-His-Phe-arg-Asp-NH2]
> 8 pKD	–	–	Hexanoyl-CPPTEFCDHFRD-NH2 (linker 1-7 via mXylylene; SMILES CCCCCC(=O)N[C@H]1CSCc2cccc(c2)CSC[C@@H](C(=O)N[C@@H](CC(=O)O)C(=O)N[C@@H](Cc2c[nH]cn2)C(=O)N[C@@H](Cc2ccccc2)C(=O)N[C@@H](CCCNC(=N)N)C(=O)N[C@@H](CC(=O)O)C(N)=O)NC(=O)[C@H](Cc2ccccc2)NC(=O)[C@H](CCC(=O)O)NC(=O)[C@H]([C@@H](C)O)NC(=O)[C@@H]2CCCN2C(=O)[C@@H]2CCCN2C1=O) [Hex-[Cys(3MeBn)-Pro-Pro-Thr-Glu-Phe-Cys]-Asp-His-Phe-Arg-Asp-NH2]
> 8 pKD	–	–	Ac-CPPTEFCDHFRD-NH2 (linker 1-7 via mXylylene; SMILES CC(=O)N[C@H]1CSCc2cccc(c2)CSC[C@@H](C(=O)N[C@@H](CC(=O)O)C(=O)N[C@@H](Cc2c[nH]cn2)C(=O)N[C@@H](Cc2ccccc2)C(=O)N[C@@H](CCCNC(=N)N)C(=O)N[C@@H](CC(=O)O)C(N)=O)NC(=O)[C@H](Cc2ccccc2)NC(=O)[C@H](CCC(=O)O)NC(=O)[C@H]([C@@H](C)O)NC(=O)[C@@H]2CCCN2C(=O)[C@@H]2CCCN2C1=O, also called 3BP-3202) [Ac-[Cys(3MeBn)-Pro-Pro-Thr-Glu-Phe-Cys]-Asp-His-Phe-Arg-Asp-NH2]

Reference: patent US20230212549A1 (3B PHARMACEUTICALS, published 2023)
